Laboratory results: patent US20250051463A1, “CD123 ANTIBODY-DRUG CONJUGATES AND METHODS OF USING THE SAME” (ASTRAZENECA AB, priority 2023, published 2025)

Legend:
[1] = test system: subcutaneous EOL-1 tumors; assay: EOL-1 subcutaneous xenograft study; type: in vivo, Nude mice; details: 0.24 mg/kg at a single dose
Procedure: EOL-1 cells that express about 2,000 CD123/IL3Rα per cell were maintained in the RPMI-1640 medium containing 10% heat-inactivated FBS and were cultured in a humidified atmosphere of 5% CO2 and at a temperature of 37° C. On the day of implantation, cells were spun down at 1500 rpm for 5 minutes, counted, and resuspended to a final concentration of 50×10^6 cells/mL in PBS. Female Nude mice were each injected subcutaneously in the right flank with 10×10^6 cells in 200 μL volume. When average tumor volume reached ˜150-250 mm^3 on Day 9, mice were randomized into treatment groups using the Matched Distribution method built into the Study Director software.
Test and control ADC were diluted from a stock solution with vehicle buffer (20 mM histidine, 240 mM sucrose, 0.02% Polysorbate 80, pH 6.0) and were administered as a single intravenous (IV) injection according to body weight.
Tumor volume and body weight were measured twice weekly from Day 6 to Day 60 after EOL-1 implant. Tumors were measured by caliper and the volumes of tumors were calculated using the following formula:
Tumor Volume=[length (mm)×width (mm)^2]/2; where the length and the width are the longest and shortest diameters of the tumor respectively.

RPMI-8226 = assay: CellTiter-Glo cell viability, 3 days; type: cell-based
Procedure: (§1) The CD123-expressing endothelial cell lines HUVEC and HPAEC and control cell lines RPMI-8226 (high CD123 expressing) and K562 (low expressing or negative for CD123) were cultured and co-incubated with Comparator-1 ADC, NIP228-SG3932 (isotype control for HT12-GL-SG3932) HT12-GL-SG3932, or CD123 mAb (HT12-GL) for 3 days at concentrations ranging from 0.0017 to 520 μg/mL for CD123 mAb, HT12-GL-SG3932, or NIP228-SG3932) or 0.0010 to 320 μg/mL for IMGN-IGN). Cell viability was assessed by CellTiter-Glo Cell Viability Assay and IC50 for viability was calculated (when possible) for each compound for each cell line. Expression of CD123 was assessed by western blot surface expression or by flow cytometry (FIG. 9C-9H).

HPAEC = assay: CellTiter-Glo cell viability, 3 days; type: cell-based
Procedure: as §1

K562 = assay: CellTiter-Glo cell viability, 3 days; type: cell-based
Procedure: as §1

HUVEC = assay: CellTiter-Glo cell viability, 3 days; type: cell-based
Procedure: as §1

B1: pivekimab sunirine (conjugate, chains of the INN, looked up)
VH: QVQLVQSGAEVKKPGASVKVSCKASGYIFTSSIMHWVRQAPGQGLEWIGYIKPYNDGTKYNEKFKGRATLTSDRSTSTAYMELSSLRSEDTAVYYCAREGGNDYYDTMDYWGQGTLVTVSS
VL: EIQMTQSPSSLSASVGDRVTITCRASQDINSYLSWFQQKPGKAPKTLIYRVNRLVDGVPSRFSGSGSGNDYTLTISSLQPEDFATYYCLQYDAFPYTFGQGTKVEIK
modifications: sunirine payload
anti-tumor effect (tumor volume) [1]: complete tumor regression
Cytotoxicity (Viability IC50) RPMI-8226 (RPMI-8226): 53.9 µg/mL
Cytotoxicity (Viability IC50) HPAEC (HPAEC): 6.0 µg/mL
Cytotoxicity (Viability IC50) K562 (K562): 10.3 µg/mL
Cytotoxicity (Viability IC50) HUVEC (HUVEC): 6.9 µg/mL
